Assay results published in paper PMC5625722.

Biological target: Proliferating cell nuclear antigen (PCNA), wild type (UniProt P15873)
Assay: MST; fluorescently labeled PCNA (22 nM, RED-NHS) constant, Mus81 (1-319) fragment 1.3-5500 nM; T buffer with 0.05% Tween-20 and 150 mM KCl; 25 °C; Monolith NT.115; apparent Kd

Kd [µM] | Binder
0.253 | N-terminal fragment of Mus81 (1-319) (domain or fragment) MELSSNLKDLYIEWLQELVDGLTPKQEQLKIAYEKAKRNLQNAEGSFYYPTDLKKVKGIGNTIIKRLDTKLRNYCKIHHISPVEAPSLTQTSSTRPPKRTTTALRSIVNSCENDKNEAPEEKGTKKRKTRKYIPKKRSGGYAILLSLLELNAIPRGVSKEQIIEVAGKYSDHCMTPNFSTKEFYGAWSSIAALKKHSLVLEEGRPKRYSLTEEGVELTKSLKTADGISFPKENEEPNEYSVTRNESSEFTANLTDLRGEYGKEEEPCDINNTSFMLDITFQDLSTPQRLQNNVFKNDRLNSQTNISSHKLEEVSDDQTV
20.5 | Mus81 (1-319) E44Q mutant (domain or fragment) MELSSNLKDLYIEWLQELVDGLTPKQEQLKIAYEKAKRNLQNAQGSFYYPTDLKKVKGIGNTIIKRLDTKLRNYCKIHHISPVEAPSLTQTSSTRPPKRTTTALRSIVNSCENDKNEAPEEKGTKKRKTRKYIPKKRSGGYAILLSLLELNAIPRGVSKEQIIEVAGKYSDHCMTPNFSTKEFYGAWSSIAALKKHSLVLEEGRPKRYSLTEEGVELTKSLKTADGISFPKENEEPNEYSVTRNESSEFTANLTDLRGEYGKEEEPCDINNTSFMLDITFQDLSTPQRLQNNVFKNDRLNSQTNISSHKLEEVSDDQTV
